Publication PMC10397247
Where two headings read alike, the source gives them in different places.

Columns and labels:
Experiment in all cases: two-hybrid library CCmax;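 note: natural log of median RNA to DNA barcode read ratio; higher means stronger binding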
4H710-AA = target: T1, 4H710-AA; conditions: mean of both orientations
T1 chain: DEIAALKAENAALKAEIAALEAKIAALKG

4H570-AA = target: T2, 4H570-AA; conditions: mean of both orientations
T2 chain: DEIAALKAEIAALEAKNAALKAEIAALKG

4H2274-AA = target: T3, 4H2274-AA; conditions: mean of both orientations
T3 chain: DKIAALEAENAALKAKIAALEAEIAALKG

4H2253-AA = target: T4, 4H2253-AA; conditions: mean of both orientations
T4 chain: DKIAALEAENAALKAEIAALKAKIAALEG

4H1864-AA = target: T5, 4H1864-AA
T5 chain: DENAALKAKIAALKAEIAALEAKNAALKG

4H3865-AA = target: T6, 4H3865-AA; conditions: mean of both orientations
T6 chain: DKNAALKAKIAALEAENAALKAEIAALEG

4H909-AA = target: T7, 4H909-AA; conditions: mean of both orientations
T7 chain: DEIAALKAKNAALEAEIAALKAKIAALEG

4H2698-AA = target: T8, 4H2698-AA; conditions: mean of both orientations
T8 chain: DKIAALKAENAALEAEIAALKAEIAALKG

4H891-AA = target: T9, 4H891-AA; conditions: mean of both orientations
T9 chain: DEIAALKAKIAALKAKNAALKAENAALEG

4H629-AA = target: T10, 4H629-AA; conditions: mean of both orientations
T10 chain: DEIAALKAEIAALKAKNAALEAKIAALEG

4H458-AA = target: T11, 4H458-AA; conditions: mean of both orientations
T11 chain: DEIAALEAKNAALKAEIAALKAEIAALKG

4H3753-AA = target: T12, 4H3753-AA; conditions: mean of both orientations
T12 chain: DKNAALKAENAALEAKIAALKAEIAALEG

4H1842-AA = target: T13, 4H1842-AA
T13 chain: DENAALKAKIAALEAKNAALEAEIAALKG

4H2330-AA = target: T14, 4H2330-AA
T14 chain: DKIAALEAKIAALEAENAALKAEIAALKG

4H3395-AA = target: T15, 4H3395-AA; conditions: mean of both orientations
T15 chain: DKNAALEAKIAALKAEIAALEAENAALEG

4H310-AA = target: T16, 4H310-AA; conditions: mean of both orientations
T16 chain: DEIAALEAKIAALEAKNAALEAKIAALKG

4H3120-AA = target: T17, 4H3120-AA; conditions: mean of both orientations
T17 chain: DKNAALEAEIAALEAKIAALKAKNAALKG

4H3165-AA = target: T18, 4H3165-AA; conditions: mean of both orientations
T18 chain: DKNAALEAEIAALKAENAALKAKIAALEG

4H2725-AA = target: T19, 4H2725-AA
T19 chain: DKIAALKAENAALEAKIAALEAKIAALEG

4H94-AA = target: T20, 4H94-AA; conditions: mean of both orientations
T20 chain: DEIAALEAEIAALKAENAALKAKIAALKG

4H3590-AA = target: T21, 4H3590-AA; conditions: mean of both orientations
T21 chain: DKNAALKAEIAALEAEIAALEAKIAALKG

4H2389-AA = target: T22, 4H2389-AA; conditions: mean of both orientations
T22 chain: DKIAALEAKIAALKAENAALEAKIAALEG

4H2649-AA = target: T23, 4H2649-AA; conditions: mean of both orientations
T23 chain: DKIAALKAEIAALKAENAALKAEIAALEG

4H2109-AA = target: T24, 4H2109-AA; conditions: mean of both orientations
T24 chain: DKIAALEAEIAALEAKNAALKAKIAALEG

4H2473-AA = target: T25, 4H2473-AA; conditions: mean of both orientations
T25 chain: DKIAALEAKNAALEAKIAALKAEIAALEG

4H485-AA = target: T26, 4H485-AA; conditions: mean of both orientations
T26 chain: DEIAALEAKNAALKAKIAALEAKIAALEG

4H2162-AA = target: T27, 4H2162-AA; conditions: mean of both orientations
T27 chain: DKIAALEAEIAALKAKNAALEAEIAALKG

4H3381-AA = target: T28, 4H3381-AA; conditions: mean of both orientations
T28 chain: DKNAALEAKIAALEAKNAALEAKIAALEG

4H2865-AA = target: T29, 4H2865-AA; conditions: mean of both orientations
T29 chain: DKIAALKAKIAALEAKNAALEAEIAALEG

4H3016-AA = target: T30, 4H3016-AA; conditions: mean of both orientations
T30 chain: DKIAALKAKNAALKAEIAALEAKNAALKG

4H2438-AA = target: T31, 4H2438-AA; conditions: mean of both orientations
T31 chain: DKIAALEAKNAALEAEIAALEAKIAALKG

4H930-AA = target: T32, 4H930-AA; conditions: mean of both orientations
T32 chain: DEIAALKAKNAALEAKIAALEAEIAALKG

4H1877-AA = target: T33, 4H1877-AA; conditions: mean of both orientations
T33 chain: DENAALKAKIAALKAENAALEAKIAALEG

4H3410-AA = target: T34, 4H3410-AA; conditions: mean of both orientations
T34 chain: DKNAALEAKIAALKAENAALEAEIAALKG

4H797-AA = target: T35, 4H797-AA; conditions: mean of both orientations
T35 chain: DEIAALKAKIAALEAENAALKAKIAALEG

4H3697-AA = target: T36, 4H3697-AA; conditions: mean of both orientations
T36 chain: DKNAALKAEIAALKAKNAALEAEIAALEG

4H745-AA = target: T37, 4H745-AA; conditions: mean of both orientations
T37 chain: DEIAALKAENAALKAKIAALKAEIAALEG

4H3009-AA = target: T38, 4H3009-AA; conditions: mean of both orientations
T38 chain: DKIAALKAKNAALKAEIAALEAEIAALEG

4H850-AA = target: T39, 4H850-AA; conditions: mean of both orientations
T39 chain: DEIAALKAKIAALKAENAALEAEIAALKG

4H536-AA = target: T40, 4H536-AA; conditions: mean of both orientations
T40 chain: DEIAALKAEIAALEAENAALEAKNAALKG

4H3130-AA = target: T41, 4H3130-AA; conditions: mean of both orientations
T41 chain: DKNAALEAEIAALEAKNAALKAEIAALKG

4H918-AA = target: T42, 4H918-AA; conditions: mean of both orientations
T42 chain: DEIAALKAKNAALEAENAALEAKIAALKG

4H953-AA = target: T43, 4H953-AA; conditions: mean of both orientations
T43 chain: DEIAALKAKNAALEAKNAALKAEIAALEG

4H687-AA = target: T44, 4H687-AA; conditions: mean of both orientations
T44 chain: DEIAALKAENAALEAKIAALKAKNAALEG

4H967-AA = target: T45, 4H967-AA; conditions: mean of both orientations
T45 chain: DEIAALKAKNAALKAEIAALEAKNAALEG

4H883-AA = target: T46, 4H883-AA; conditions: mean of both orientations
T46 chain: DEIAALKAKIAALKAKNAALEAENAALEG

4H717-AA = target: T47, 4H717-AA; conditions: mean of both orientations
T47 chain: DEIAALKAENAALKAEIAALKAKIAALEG

4H568-AA = target: T48, 4H568-AA
T48 chain: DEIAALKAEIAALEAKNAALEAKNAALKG

## DENAALKAKIAALEAKNAALEAEIAALKG [4H1842-AA]
4H710-AA
  interaction score: -1.63
4H570-AA
  interaction score: 0.585
4H2274-AA
  interaction score: -1.6
4H2253-AA
  interaction score: -1.72
4H1864-AA; mean of both orientations
  interaction score: -1.82
4H3865-AA
  interaction score: -0.938
4H909-AA
  interaction score: -1.17
4H2698-AA
  interaction score: -0.986
4H891-AA
  interaction score: -1.42
4H629-AA
  interaction score: -1.59
4H458-AA
  interaction score: -1.14
4H3753-AA
  interaction score: -1.52
4H1842-AA
  interaction score: 1.88
4H2330-AA
  interaction score: -1.35
4H3395-AA
  interaction score: -2.04
4H310-AA
  interaction score: 0.761
4H3120-AA
  interaction score: -1.44
4H3165-AA
  interaction score: -1.43
4H2725-AA
  interaction score: -1.86
4H94-AA
  interaction score: -1.17
4H3590-AA
  interaction score: -0.391
4H2389-AA
  interaction score: -1.52
4H2649-AA
  interaction score: -1.27
4H2109-AA
  interaction score: -1.43
4H2473-AA
  interaction score: -1.44
4H485-AA
  interaction score: -1.94
4H2162-AA
  interaction score: -1.21
4H3381-AA
  interaction score: -1.2
4H2865-AA
  interaction score: -0.0645
4H3016-AA
  interaction score: -1.43
4H2438-AA
  interaction score: -1.14
4H930-AA
  interaction score: -1.21
4H1877-AA
  interaction score: -1.15
4H3410-AA
  interaction score: -0.8
4H797-AA
  interaction score: -1.34
4H3697-AA
  interaction score: -1.01
4H745-AA
  interaction score: -1.86
4H3009-AA
  interaction score: -1.78
4H850-AA
  interaction score: 0.256
4H536-AA
  interaction score: -1.7
4H3130-AA
  interaction score: 0.65

## DENAALKAKIAALKAEIAALEAKNAALKG [4H1864-AA]
4H710-AA
  interaction score: 1.32
4H570-AA
  interaction score: -0.57
4H2274-AA
  interaction score: -1.75
4H2253-AA
  interaction score: -1.42
4H1864-AA
  interaction score: 0.981
4H3865-AA
  interaction score: -1.65
4H909-AA
  interaction score: -1.38
4H2698-AA
  interaction score: -0.664
4H891-AA
  interaction score: -0.897
4H629-AA
  interaction score: -1.52
4H458-AA
  interaction score: -1.21
4H3753-AA
  interaction score: 0.231
4H2330-AA; mean of both orientations
  interaction score: -1.49
4H3395-AA
  interaction score: 0.321
4H310-AA
  interaction score: -1.48
4H3120-AA
  interaction score: 0.774
4H3165-AA
  interaction score: -1.47
4H2725-AA; mean of both orientations
  interaction score: -0.938
4H94-AA
  interaction score: -0.986
4H3590-AA
  interaction score: 1.23
4H2389-AA
  interaction score: 0.806
4H2649-AA
  interaction score: -1.17
4H2109-AA
  interaction score: -0.599
4H2473-AA
  interaction score: -1.22
4H485-AA
  interaction score: -0.878
4H2162-AA
  interaction score: -1.67
4H3381-AA
  interaction score: -1.63
4H2865-AA
  interaction score: -1.19
4H3016-AA
  interaction score: -1.47
4H2438-AA
  interaction score: 0.434
4H930-AA
  interaction score: -1.41
4H1877-AA
  interaction score: -1.45
4H3410-AA
  interaction score: -1.5
4H797-AA
  interaction score: -2.09
4H3697-AA
  interaction score: -1.57
4H745-AA
  interaction score: -1.35
4H3009-AA
  interaction score: -0.905
4H850-AA
  interaction score: 0.223
4H536-AA
  interaction score: 0.437
4H3130-AA
  interaction score: -0.716

## DEIAALKAEIAALEAKNAALEAKNAALKG [4H568-AA]
4H918-AA
  interaction score: -1.24
4H953-AA
  interaction score: -1.78
4H687-AA
  interaction score: -1.51
4H967-AA
  interaction score: -0.838
4H883-AA
  interaction score: 2.12
4H717-AA
  interaction score: -1.75
4H797-AA
  interaction score: -1.39
4H568-AA
  interaction score: -0.405
